Results from the nanobody polyreactivity screen of Harvey et al. (2022).

Assay: yeast display, Sf9 membrane polyspecificity reagent, FACS + sequencing; frameworks hold sequencing errors
Procedure, shortened: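 After 36–48 hours of galactose induction, yeast (Saccharomyces cerevisiae BJ5465) displaying a synthetic nanobody library were stained at 4 °C for 1 hour with 10% biotinylated, detergent-solubilized Sf9 membrane reagent. Streptavidin microbeads enriched the stained cells before FACS sorting into low and high (top ~1%) gates on anti-HA and streptavidin fluorescence. Each clone's polyreactivity label reflects its gate of origin.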
In the case of “QVQLVESGGGLVQAGGSLRLSCAASGRIFNRYAMGWYRQAPGKERELVAAINSSGGSTYYADSVKGRFTISRDNAKNTVYLQMNSLKPEDTAVYYCARVSYHYRTYDYWGQGTQVTVSS”, the “polyreactivity (PSR sort gate)” value is reported as “high polyreactivity”.
With “QVQLVESGGGLVQAGGSLRLSCAASGFTFAVSAMGWYRQAPGKERELVAAISRSGTRTYYADSVKGRFTISRDNAKNTVYLQMNSLKPEDTAVYYCAADKYRHGYDYWGQGTQVTVSS” the “polyreactivity (PSR sort gate)” value was “low polyreactivity”.
With “QVHLVESGGGLVQAGGILRLSCSASGRIFSVNAMGWYRQSPGKERELVAAITTRGGTTYYADSVKGRFTISRDNAKNTVYLLMNSLKPEDTAVYYCAAESSWYVYWEWAHDYWGQGTQVTVSS” the “polyreactivity (PSR sort gate)” value was “low polyreactivity”.
In the case of “QVQLVESGGGLVQAGGSLRLSCAASGSIFYKYAMGWYRQAPGKERELVAAISTSGGSTYYADSVKGRFTISRDNAKNTVYLQMNSLKPEDTAVYYCAKARSYGLGRSYYWGQGTQVTVSS”, the “polyreactivity (PSR sort gate)” value is reported as “high polyreactivity”.
In the case of “QVQLVESGGGLVQAGGSLRLSCSASGSTFDVYAMGRYRQAPGKERELVAAISRSGGSTYYADSVKGRFTISRDNAKNTVYLQMNSLKPEDTAVYYCAAEVGIVDYDYWGQGTQVTVSS”, the “polyreactivity (PSR sort gate)” value is reported as “low polyreactivity”.
With “QVQLVESGGGLVQAGGSLRLSCAASGSTFYYYSMGWNRQAPGKERELVAAISYRGGTTYYADSVKGRFTISRDNAKNTVYLQMNSLKPEDTAVYYCAAGVSWYRPGSYTGGYWGQGTQVTVSS” the “polyreactivity (PSR sort gate)” value was “high polyreactivity”.
For “QVQLVESGGGLVQAGGSLRLSCAASGFTFATYTIGWYRPAPGKERELVAAISWSGGSTYYADSVKGRFTISRDNAKNTVYLQMNSLKPEDTAFYYCAAQRPSALRLYSSQRTIFGYWGQGTQVTVSS”, the “polyreactivity (PSR sort gate)” value was “high polyreactivity”.
In the case of “QVQLVESGGGLVQAGGSLRLSCAASGSIFTNYAMGWDRQAPGKERELVAAIRSSGGSTYYADSVKGRFTISRDNAKNTVYFQLNSLKPEDTAVYYCAARKSYKYPVNSAVGYWGQGTQVTVSS”, the “polyreactivity (PSR sort gate)” value is reported as “high polyreactivity”.
In the case of “QVQLVESGGGLVQEGGSLRLRCAASGSTFIRYVMGWYRQAPGKERELVAGINSSGGSTNYADSVKGRFTISRDNAKNTVYLQMNSLKPVDTAVYYCNADLRSEYVYWGQGTQVTVSS”, the “polyreactivity (PSR sort gate)” value is reported as “low polyreactivity”.
With “QVQLVESGGGLVQAGGSLRLSCAASGRIFAFYAMGWYRQAPGKERELVAAISWDGGSSYYADSVKGRFTISRDNAKNTVYLQMNSLKPEDTAVYDCNKDLYYAYDYWGQGTQVTVSS” the “polyreactivity (PSR sort gate)” value was “low polyreactivity”.
In the case of “QVQLVESGGGLVQAGGSLRLSCAASGRTFYGYAMGWYRQAPGKERELVAAISVSGGSTYYADSVKGRFTISRDNAKNTVYLQMNSLKPEDTAVYYCATKGLFTNSPLYVSAYDYWGQGTQVTVSS”, the “polyreactivity (PSR sort gate)” value is reported as “low polyreactivity”.
For “QVQLVESGGGLVQAGGSLRLSCAASGGTFDWNTMGWYRQAPGKERELVASITSGGRTNYADSVKGRFTISRDNAKNTVYLQMNSLKPEDTAVYYCAIYRRSAYPWQTWVGQKFDYWGQGTQVTVSS”, the “polyreactivity (PSR sort gate)” value was “low polyreactivity”.
For “QVQLQGSGGGLAQAGDSLRLSCAASGTIFSEYNNGLVSPGAGQRTRTCCRYWCWGNTYYADSAKGRFTTSRDNANNTVYLQKNSLIPEDTAVYYCAFNRPYPSRHIYRGQGTQVTVSS”, the “polyreactivity (PSR sort gate)” value was “high polyreactivity”.
For “QVHLVQSGGGLVQAGGSLRLSCAASGRTFYIYAMGCYRQAPGKERELVAAISWRGGSTYYANSVKGRFTISLDHAKYTVYLQMNSLKPEDTAVYYCAAEGAHVKWYRNWWEYDDWGQGTQVTVSS”, the “polyreactivity (PSR sort gate)” value was “high polyreactivity”.
For “QVQLVESGGGLVQAGGSLRLSCAASVIIFQVYAMGWYRQAAGKERELVAAITRRGASTYYADSVKGRFTISRDNPKNTDYLQMNSLKPEETAVYYFNARAYYRLYKSKLGYWGQGTQVTVSS”, the “polyreactivity (PSR sort gate)” value was “high polyreactivity”.
For “QVQLVESGGGLVQAGGSLRLSCAASGRIFRRYAMGWYRQAPGKERELVAVISRGGSTHYADSVKGRFTISRDNAKNTVYLQMNSLKPEDTAVYYCNAVVSVYTKDLDYWGQGTQVTVSS”, the “polyreactivity (PSR sort gate)” value was “high polyreactivity”.
For “QVQLVESGGGLVQAGGSLRLSCAASGRIFGRYAMGWYRQAPGKERELVAAITSSGGNTYYADSVKGRFTISRDNAKNTVYLQMNSLKPEDTAVYYCNALSARSRLQSDYWGQGTQVTVSS”, the “polyreactivity (PSR sort gate)” value was “high polyreactivity”.
With “QVQLVESGGGLVQAGGSLRLICAASGSTYRYYAMGWSRQAPGKERELVAGITGSGGSTYYADSVKGRFTISRDNAKNTVYLQMNSLNPEDTAVYDCATKLRRWRFYAAYDYWGQGTQVTVSS” the “polyreactivity (PSR sort gate)” value was “high polyreactivity”.
In the case of “QVQLVESRGGVVQAGGSLRLSSAASGTFVYAMGWYRQAPGKERELVAAISYSGGSTYYADSVKGRFTISRDNAKNTVYLQMNSLKPEDTAVYYCAARTTLSYGYDYWGQGTQVTVSS”, the “polyreactivity (PSR sort gate)” value is reported as “high polyreactivity”.
In the case of “QVQLVESGGGLVQAGGSLRLSCAASGRILIVNTMGWYRQAPGKERELVAAISSGGTTYYADSVKGRFTISRDNAKNTVYLQMNSLKPEDTAVYYCAAKRAGAEYDYWGQGTQVTVSS”, the “polyreactivity (PSR sort gate)” value is reported as “high polyreactivity”.
For “QVQLVESGGGLVQAGGSLRLSCAASGSTFVINAMGWYRQAPGKERELVADIDYRGGSTNYADSVKGRFTISRDNAKNTVYLQMNSLKPEDTAVYYCNKRYVIRRRGYDYWGQGTQVTVSS”, the “polyreactivity (PSR sort gate)” value was “low polyreactivity”.
With “QVQLVESGGGLVQAGGSLRLSCAASGGIFVPNDMGWYRQAPGKERELVAAIRDGGSTNYADSVKGRFTISRDNAKNTVYLQMNSLKPEDTAVYYCAADYSLALAKYDYWGQGTQVTVSS” the “polyreactivity (PSR sort gate)” value was “low polyreactivity”.
For “QVQLVESGGGLVQAGGSLRLSCAASGRIFFGYAMGWYRQAPGKERELVATISYNDTSTYYADSVKGRFTISRDNAKNTVYLQMNSLKPEDTAVYYCAKSLGAPASDDYWGQGTQVTVSS”, the “polyreactivity (PSR sort gate)” value was “low polyreactivity”.
For “QVQLVESGGGLVQAGGSLRLSCAASGIIFSSYAMGWYRQAPGKERELVADISYTGGSTYYADSVKGRFTISRDNAKNTVYLQMNSLKPEDTAVYYSAAGVYLHYSVDYWGQGTQVTVSS”, the “polyreactivity (PSR sort gate)” value was “low polyreactivity”.
With “QVQLVESGGGLVQAGGSLRLSCAASGMIFKYYVMGWYRQAPGKERELVAAIRWSGGITSYADSVKGRFTISRDNAKNTVYLQMNSLKPEDTAVYYCAVAHSRLRTAYTFSVQRYDYWGQGTQVTVSS” the “polyreactivity (PSR sort gate)” value was “low polyreactivity”.
In the case of “QVQRVESGGGLVQAGGSLRLSCAASGFTFDRYAMGWYRQAPGKERELVAAISRSGGSTHYADSVKGRFTISRDNAKNTVYLQMNSLKPEDTAVYYCAKVYAPITALYFPTDRGDYCGQGTQVTVSS”, the “polyreactivity (PSR sort gate)” value is reported as “high polyreactivity”.
With “QVQLVESGGGLVQAGGSLRLSCAASGNTFRRYAMGWYRQAPGKERELVAAISYRGGSTYYADSVKGRFTISRDNAQNTVYLQMNSLKPEDTAVSYCNARFATSVLYDYWGQGTQVTVSS” the “polyreactivity (PSR sort gate)” value was “high polyreactivity”.
With “QVQLVESGGGLVQAGGSLRLSCAASGRIFDYYDMGWYRQAPVKERELVAAITSSGTSTYYADSVKGRFTISRDNAKNTVYLQMNSLKPEDTAVYYCNARSIRPWGENGFWGQGTQVTVSS” the “polyreactivity (PSR sort gate)” value was “high polyreactivity”.
For “QDQLVESGGGLVQAGGSLRLSCAASGRIFQGYAMGWYRQAPGKERELVAAITLSGGSTYYADSVKGRFTISRDNAKNTVYLQMNSLKPEDTAVYYCNAYYPDEPSLYDYWGQGTQVTVSS”, the “polyreactivity (PSR sort gate)” value was “low polyreactivity”.
For “QVQLVESGGGLVQVGGSLRLSCAASGSIFAINAMGWYRQAPGKERELVAAIRRRDGNTYYADSVKGRFTISRDNAKNTVYLQMNSLKPEDTAVYYCNTYSRRTSVIAYRYNYWGQGTQVTVSS”, the “polyreactivity (PSR sort gate)” value was “high polyreactivity”.
With “QVQLVESGGGLVQAGGSLRLSCAASGFIFDINAMGWYRQAPGKERELVAAISYSGGSTYYADSVKGRFTISRDNAKNNVYLQMNSLKPEDTAVYYCAADSGPDSDEGDYWGQGTQVTVSS” the “polyreactivity (PSR sort gate)” value was “low polyreactivity”.
In the case of “QVQRVESGGGLVQAGGSLRISCAASGLIFYRYAMGRYRQAPGKERELVAAISKRGTSTYYADSVKGRFTISRDNAKNTVYLQMNSLKPEDTAVYYCAADVQEEYDYWGLGTQVTVSS”, the “polyreactivity (PSR sort gate)” value is reported as “high polyreactivity”.
For “QVQIVESGGGLVQAGGRLSLTCAASGRIFTAYAMRWYRPAPGKEREFVAAISARGGSTNYADSVKGRFTISRDNAMNTVYLQMNSLKPEDTAVYYCHARFVQWYWIGNVIHIDNDYWGQGSQVTVSS”, the “polyreactivity (PSR sort gate)” value was “low polyreactivity”.
In the case of “QVQLVESGGGLVQAGGSLRLSCAASGFTFYGYGMGWYRQAPGKERELVAGISSGGGSTFYADSVKGRFTISRDNAKNTVYLQMNSLKPEDTAVYYCAALHYGGYFSYYPYYYWGQGTQVTVSS”, the “polyreactivity (PSR sort gate)” value is reported as “low polyreactivity”.
With “QVQLVESGGGLVQAGGSLRLSCAASGSNFVPYTMGWYRQAPGKERELVASISYSVGTTYYADSVKGRFTISRDNAKNTVYLQMNSLKPEDTAVYYCAADWDESYSYRRYRHYDYWGQGTQVTVSS” the “polyreactivity (PSR sort gate)” value was “low polyreactivity”.
For “QVQLVESGGGLVQAGGSLRLSCAASGRIFYRYSMGWYRQAPGKERELVAAIRYSGGTTYADSVKGRFTISRDNAKNTVYLQMNSLKPEDTAVYYCAARASLWGGFESWGQGTQVTVSS”, the “polyreactivity (PSR sort gate)” value was “high polyreactivity”.
With “QVQLVESGGGLVQAGGSLRLSCAASGSTFPLNVMGWYRQAPGKERELVAAISSSGGRTYYADSVKGRFTISRDNAKNTVYLQMNSLKPEDTAVYYCNARWRKNLSGRVFRYDYWGQGTQVTVSS” the “polyreactivity (PSR sort gate)” value was “high polyreactivity”.
With “QVQLVESGGGLVQAGGSLRLSCAASGFIFVNYAMGWNRQAPGKERELVAAISARGGSTNYADSVKGRFTISRDNAKNTVYLQMNSLKPEDTAVYYCAARYTARRQSYGYWGQGTQVTVSS” the “polyreactivity (PSR sort gate)” value was “high polyreactivity”.
With “QDQLVESGGGLVQAGGSLRLSCAASGRIFRGYAMGWYRQAHGKERELVAVISYSGTRTYYADSVKGRFTISRDNAKNTVYIQMNSLKPEDTAVYYCNARANGFKDGYWGEGTQVTVSS” the “polyreactivity (PSR sort gate)” value was “high polyreactivity”.
For “QVQLVESGGGLVQAGGSLRLSCAASGSIFKYYAMGWYRQAPGKERELVAAISSGGRTYYADSVKGRFTISRDNAKNTVYLQMNSLKPEDTAVYYCNRPPWSRGSNYWGQGTQVTVSS”, the “polyreactivity (PSR sort gate)” value was “high polyreactivity”.
With “QVQLVESGGGLVQAGGSLRLSCAASGRTQYKYAMGWYRQAPGKERELVATISSGGRTKYADSVKGRFTISRDNAKNTVDLQMNSLKPEDTAVYYCAAQNRPRYYSGDYWGQGTQVTVSS” the “polyreactivity (PSR sort gate)” value was “low polyreactivity”.
